From patent publication US20220025381A1

Assays:
Assay in all cases: cell-based or functional assay
[1] = biological target: T1, CD400 PV1-GAI-L1-RfxCas13d-264C-NLS-BGHpA
T1 sequence: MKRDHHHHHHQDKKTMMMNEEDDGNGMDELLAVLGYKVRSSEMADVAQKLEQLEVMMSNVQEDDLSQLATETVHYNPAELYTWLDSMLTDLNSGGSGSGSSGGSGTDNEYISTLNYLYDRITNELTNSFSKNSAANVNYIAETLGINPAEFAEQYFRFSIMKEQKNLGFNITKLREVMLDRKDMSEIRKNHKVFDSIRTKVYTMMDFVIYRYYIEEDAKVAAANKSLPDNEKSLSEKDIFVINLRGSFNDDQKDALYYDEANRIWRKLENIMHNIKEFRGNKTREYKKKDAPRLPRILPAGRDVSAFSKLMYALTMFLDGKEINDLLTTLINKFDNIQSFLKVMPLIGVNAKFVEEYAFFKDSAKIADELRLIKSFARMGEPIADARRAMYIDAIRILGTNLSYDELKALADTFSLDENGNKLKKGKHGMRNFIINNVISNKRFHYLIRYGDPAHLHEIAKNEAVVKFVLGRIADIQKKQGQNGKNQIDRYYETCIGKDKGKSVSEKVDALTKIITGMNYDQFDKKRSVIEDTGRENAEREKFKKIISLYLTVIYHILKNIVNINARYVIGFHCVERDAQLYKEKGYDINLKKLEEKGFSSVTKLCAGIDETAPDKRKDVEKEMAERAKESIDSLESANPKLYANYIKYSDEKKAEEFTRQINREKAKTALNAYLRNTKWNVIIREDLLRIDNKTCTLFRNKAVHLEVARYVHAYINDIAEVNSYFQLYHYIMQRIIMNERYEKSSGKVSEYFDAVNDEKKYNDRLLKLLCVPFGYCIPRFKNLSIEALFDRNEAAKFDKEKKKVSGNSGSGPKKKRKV

[2] = biological target: T2, CD376 PV1-RfxCas13d-566C-NLS-BGHpA
T2 sequence: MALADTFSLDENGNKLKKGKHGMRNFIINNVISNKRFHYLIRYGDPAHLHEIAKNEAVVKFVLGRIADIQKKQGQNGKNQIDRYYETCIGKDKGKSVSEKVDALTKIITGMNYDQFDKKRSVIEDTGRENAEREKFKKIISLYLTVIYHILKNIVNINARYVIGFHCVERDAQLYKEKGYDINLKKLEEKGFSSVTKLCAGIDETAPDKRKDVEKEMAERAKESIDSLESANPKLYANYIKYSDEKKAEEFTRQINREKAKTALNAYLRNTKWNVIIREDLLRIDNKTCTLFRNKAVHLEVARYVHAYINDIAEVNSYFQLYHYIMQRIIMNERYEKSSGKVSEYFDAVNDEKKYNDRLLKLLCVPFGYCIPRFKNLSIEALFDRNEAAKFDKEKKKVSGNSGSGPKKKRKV

[3] = biological target: T3, CD380 PV1-RfxCas13d-656C-NLS-BGHpA
T3 sequence: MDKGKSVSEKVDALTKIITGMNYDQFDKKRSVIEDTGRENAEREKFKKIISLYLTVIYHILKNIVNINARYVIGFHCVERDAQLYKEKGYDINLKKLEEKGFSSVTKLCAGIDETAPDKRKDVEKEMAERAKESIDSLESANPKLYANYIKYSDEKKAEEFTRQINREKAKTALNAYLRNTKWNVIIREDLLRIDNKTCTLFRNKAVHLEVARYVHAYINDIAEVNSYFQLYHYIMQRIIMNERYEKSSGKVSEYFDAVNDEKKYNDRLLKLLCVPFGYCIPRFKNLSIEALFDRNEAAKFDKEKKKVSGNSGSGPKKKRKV

B1: CD399 PV1-RfxCas13d-N263-L1-GID-NLS-BGHpA (protein)
chain: MIEKKKSFAKGMGVKSTLVSGSKVYMTTFAEGSDARLEKIVEGDSIRSVNEGEAFSAEMADKNAGYKIGNAKFSHPKGYAVVANNPLYTGPVQQDMLGLKETLEKRYFGESADGNDNICIQVIHNILDIEKILAEYITNAAYAVNNISGLDKDIIGFGKFSTVYTYDEFKDPEHHRAAFNNNDKLINAIKAQYDEFDNFLDNPRLGYFGQAFFSKEGRNYIINYGNECYDILALLSGLRHWVVHNNEEESRISRTWLYNLDKNLSGGSGSGSSGGSGTMAASDEVNLIESRTVVPLNTWVLISNFKVAYNILRRPDGTFNRHLAEYLDRKVTANANPVDGVFSFDVLIDRRINLLSRVYRPAYADQEQPPSILDLEKPVDGDIVPVILFFHGGSFAHSSANSAIYDTLCRRLVGLCKCVVVSVNYRRAPENPYPCAYDDGWIALNWVNSRSWLKSKKDSKVHIFLAGDSSGGNIAHNVALRAGESGIDVLGNILLNPMFGGNERTESEKSLDGKYFVTVRDRDWYWKAFLPEGEDREHPACNPFSPRGKSLEGVSFPKSLVVVAGLDLIRDWQLAYAEGLKKAGQEVKLMHLEKATVGFYLLPNNNHFHNVMDEISAFVNAECPKKKRKV
- knockdown efficiency of mCherry with gibberellin and gRNA [1]: > 60%

B2: CD375 PV1-RfxCas13d-N565-NLS-BGHpA (protein)
chain: MIEKKKSFAKGMGVKSTLVSGSKVYMTTFAEGSDARLEKIVEGDSIRSVNEGEAFSAEMADKNAGYKIGNAKFSHPKGYAVVANNPLYTGPVQQDMLGLKETLEKRYFGESADGNDNICIQVIHNILDIEKILAEYITNAAYAVNNISGLDKDIIGFGKFSTVYTYDEFKDPEHHRAAFNNNDKLINAIKAQYDEFDNFLDNPRLGYFGQAFFSKEGRNYIINYGNECYDILALLSGLRHWVVHNNEEESRISRTWLYNLDKNLDNEYISTLNYLYDRITNELTNSFSKNSAANVNYIAETLGINPAEFAEQYFRFSIMKEQKNLGFNITKLREVMLDRKDMSEIRKNHKVFDSIRTKVYTMMDFVIYRYYIEEDAKVAAANKSLPDNEKSLSEKDIFVINLRGSFNDDQKDALYYDEANRIWRKLENIMHNIKEFRGNKTREYKKKDAPRLPRILPAGRDVSAFSKLMYALTMFLDGKEINDLLTTLINKFDNIQSFLKVMPLIGVNAKFVEEYAFFKDSAKIADELRLIKSFARMGEPIADARRAMYIDAIRILGTNLSYDELKPKKKRKV
- gRNA induced knockdown of mCherry without CID domains [2]: < 80%

B3: CD379 PV1-RfxCas13d-N655-NLS-BGHpA (protein)
chain: MIEKKKSFAKGMGVKSTLVSGSKVYMTTFAEGSDARLEKIVEGDSIRSVNEGEAFSAEMADKNAGYKIGNAKFSHPKGYAVVANNPLYTGPVQQDMLGLKETLEKRYFGESADGNDNICIQVIHNILDIEKILAEYITNAAYAVNNISGLDKDIIGFGKFSTVYTYDEFKDPEHHRAAFNNNDKLINAIKAQYDEFDNFLDNPRLGYFGQAFFSKEGRNYIINYGNECYDILALLSGLRHWVVHNNEEESRISRTWLYNLDKNLDNEYISTLNYLYDRITNELTNSFSKNSAANVNYIAETLGINPAEFAEQYFRFSIMKEQKNLGFNITKLREVMLDRKDMSEIRKNHKVFDSIRTKVYTMMDFVIYRYYIEEDAKVAAANKSLPDNEKSLSEKDIFVINLRGSFNDDQKDALYYDEANRIWRKLENIMHNIKEFRGNKTREYKKKDAPRLPRILPAGRDVSAFSKLMYALTMFLDGKEINDLLTTLINKFDNIQSFLKVMPLIGVNAKFVEEYAFFKDSAKIADELRLIKSFARMGEPIADARRAMYIDAIRILGTNLSYDELKALADTFSLDENGNKLKKGKHGMRNFIINNVISNKRFHYLIRYGDPAHLHEIAKNEAVVKFVLGRIADIQKKQGQNGKNQIDRYYETCIGKPKKKRKV
- gRNA induced knockdown of mCherry without CID domains [3]: < 80%
